B1: CP_03_E05 (scFv, not shown: small tags and cut ends)
scFv: EVQLVESGGGVVQPGGSLRLSCAASGFTFSSYAMSWVRQAPGKGLEWVSAISGSGGSTYYADSVKGRFSISRDNSKNTLYLQMNSLRAEDTAVYYCARTRSSGAFDIWGQGTLVTVSSGGGGSGGGGSGGGASNFMLTQPHSVSESPGKTVTISCTRSSGSIASKYVQWYQQRPGSSPTTVIYEDNQRPSGVPDRFSGSIDTSSNSASLTISGLRTEDEADYYCHSYDSNNHSVFGGGTKVTVLGQPAA
B2: CP_03_D05 (scFv, not shown: small tags and cut ends)
scFv: QVQLVESGAEVKKPGASVKVSCKASGYTFTGYYMHWVRQAPGQGLEWMGRINPNSGGTNYAQKFQGRVTMTRDTSISTAYMELSRLRSDDTAVYYCASPRGRGSAFDIWGQGTLVTVSSGGGGSGGGGSGGGASSYELTQPPSVSVSPGQTATISCSGDQLGGKYGHWYQKKPGQSPVLVLYQDRKRPAGIPERFSGSSSGNTITLTISGTQAVDEADYYCQAWDTNLGGVFGGGTKVTVLGQPAA
B3: CP_03_H06 (scFv, not shown: small tags and cut ends)
scFv: QVQLVESGGGLVKPGGSLRLSCAASGFTFSDYYMSWIRQAPGKGLEWVSYISSSGSTIYYADSVEGRFTISRDNAKNSLYLQMNSLRTEDTAVYYCARARVGGMDVWGQGTMVTVSSGGGGSGGGGSGGGASNFMLTQPHSVSESPGKTVTISCTRSSGSIASNYVQWYQQRPGSSPTTVIYEDNQRPSGVPDRFSGSIDSSSNSASLTISGLKTEDEADYYCQSFDADNLHVVFGGGTKLTVLGQPAA
B4: CP_03_C12 (scFv, not shown: small tags and cut ends)
scFv: EVQLVQSGAEVKKPGASVKVSCKASGYTFTGYYMHWVRQAPGQGLEWMGWINPNSGGTNYAQKFQGRVTMTRDTSISTAYMELSSLRSEDTAVYYCARDTGPIDYWGQGTMVTVSSGGGGSGGGGSGGGASDIVMTQTPLSLSVTPGQPASISCKSSQSLLHSDGKTYLYWYLQKPGQPPQLLVYEVSNRFSGVPDKFSGSGSGTDFTLKISRVEAEDVGVYYCMQGIQLPPTFGGGTKVDIKRTAAA
B5: CP_03_F10 (scFv, not shown: small tags and cut ends)
scFv: EVQLVESGAEVKKPGASVKVSCKASGYTFTGYYMHWVRQAPGQGLEWMGRINPNSGGTNYAQKFQGRVTMTRDTSISTAYMELSSLRSEDTAVYYCARFGERYAFDIWGQGTLVTVSSGGGGSGGGGSGGGASQSELTQPPSASGSPGQSVTISCTGTSTDVGAFHFVSWYQHTPGKAPKLLISEVRKRASGVPDRFSGSRSGNTASLTVSGLQSEDEADYFCSAYTGSNYVFGSGTKLTVLGQPAA
B6: CP_03_G09 (scFv, not shown: small tags and cut ends)
scFv: QVQLQQSGPGLVKPSQTLSLTCAISGDSVSSNSAAWNWIRQSPSRGLEWLGRTYYRSKWYNDYAVSVKSRITINPDTSKNQFSLQLNSVTPEDTAVYYCARDQWLANYYYYGMDVWGQGTLVTVSSGGGGSGGGGSGGGASSYELTQPLSVSVALGQTARITCGGNNIGSKNVHWYQQKPGQAPVLVIYRDNNRPSGIPERFSGSNSGNTATLTISKAQAGDEADYYCQVWDSNSWVFGGGTKLTVLGQPAA
B7: CP_03_F09 (scFv, not shown: small tags and cut ends)
scFv: QMQLVQSGAEVKKPGASVKVSCKASGYTFASYYMHWVRQAPGQGLEWMGIINPSGGSTSYAQKFQGRVTMTRDTSTSTVYMELSRLRSDDTAVYYCASNRGGSYKSVGMDVWGQGTTVTVSSGGGGSGGGGSGGGASNFMLTQPQSVSESPGKTVTISCTRSSGNFASKYVQWYQQRPGSSPTTVIYENYQRPSGVPDRFSGSIDSSSNSATLTISGLKTEDEADYYCQSYDEVSVVFGGGTQLTVLGQPAA
B8: CP_03_D09 (scFv, not shown: small tags and cut ends)
scFv: EVQLVQSGAEVKKPGSSVKVSCEASGYTFTSYAISWVRQAPGQGLEWMGWMNPNSGNTGYAQKFQGRVTMTRNTSISTAYMELSSLRSEDTAVYYCARVSSYYGMDVWGQGTLVTVSSGGGGSGGGGSGGGASNFMLTQPLSVSESPGKTVTISCTRSSGSIASNYVQWYQQRPGSAPTTVIYEDNQRPSGVPDRFSGSIDSSSNSASLTISGLKTEDEADYYCQSYNSSNHWVFGGGTKVTVLGQPAA
B9: CP_01_D12 (scFv, not shown: small tags and cut ends)
scFv: EVQLLESGGGVVQPGRSLRLSCAASGFTFSSYAMHWVRQAPGKGLEWVAVISYDGSNKYYADSVKGRFTISRDNSKNTLYLQMNSLRAEDTAVYYCAKGGDTYGFLDNWGQGTMVTVSSGGGGSGGGGSGGGASDIQMTQSPSTLSASVGDRVTITCRASQSISSWLAWYQQKPGKAPKLLIYKASSLESGVPSRFSGSGSGTDFTLTISSLQPEDFATYYCQQFNAYPLTFGGGTKVEIKRTAAA
B10: CP_01_D10 (scFv, not shown: small tags and cut ends)
scFv: QVQLVESGGGLVQPGRSLRLSCAASGFTFSSYAMHWVRQAPGKGLEWVAVISYDGSSKYYADSVKGRFTISRDNSKNTLYLQMNSLRAEDTAVYYCAKGGGSFGAFDIWGQGTLVTVSSGGGGSGGGGSGGGASDIQMTQSPSSLSASVGDRVTITCRASQSISRYLNWYQQKPGKAPNLLIYAASSLQSGVPSRFSGSGSGTDFTLTISSLQPEDFATYYCQQYNSYPLTFGGGTKLEIKRTAAA
B11: CP_01_C11 (scFv, not shown: small tags and cut ends)
scFv: QVQLVESGAEVKKPGASVKVSCKASGYTFTGYYMHWVRQAPGQGLEWMGRINPNSGGTNYAQKFQGRVTMTRDTSISTAYMELSRLRSDDTAVYYCASGGAGWNWGQGTMVTVSSGGGGSGGGGSGGGASNFMLTQPHSVSESPGKTATISCTRSSGSIASNYVQWYQQRPGSAPTTVIYEDNQRPFGVPDRFSGSIDSSSNSASLTISGLKTEDEADYYCQSHDSSNVVFGGGTQLTVLGQPAA

How the values were obtained:
[1] = target: TRBC1 peptide (biotinylated) (human); assay: TRF assay, scFv on biotin-peptide/neutravidin plate
[2] = target: TRBC2 peptide (biotinylated) (human); assay: as above

Row | Binder | TRBC1 Binding [1] [TRF units] | TRBC2 Binding [2] [TRF units]
1 | B1 | 1620 | –
2 | B2 | 762 | –
3 | B3 | 391 | –
4 | B4 | 789 | –
5 | B5 | 1680 | –
6 | B6 | 979 | –
7 | B7 | 889 | –
8 | B8 | 544 | –
9 | B9 | – | 298
10 | B10 | – | 306
11 | B11 | – | 622

Source: patent US20250314655A1
